B1: 89Zr-DFO-H4H14639D (bispecific antibody, V domains shown)
VH 1: EVQLVESGGGLVQPGTSLRLSCAASGFTFDDYAMHWVRQAPGKGLEWVSGITWNSYNIDYADSVKGRFTISRDNAKNSLYLQMNSLRAEDTALYYCAKDDDYSNYVYFDYWGQGTLVTVSS
VH 2: EVQLVESGGGLVQPGGSLRLSCAASGFIVTTNYMTWLRQAPGKGLEWVSLIYSSGHTYYADSVKGRFTISRHNSKNTLYLQMDSLRAEDTAVYYCASAFAADVFDIWGQGTMVTVSS
VL: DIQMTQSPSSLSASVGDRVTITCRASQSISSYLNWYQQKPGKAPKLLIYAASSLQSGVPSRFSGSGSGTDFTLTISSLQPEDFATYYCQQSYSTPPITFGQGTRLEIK
modifications: p-SCN-Bn-DFO on primary amines (sites not given), chelating 89Zr
notes: also called DFO-Ab radioimmunoconjugate; 89Zr-DFO-MET x MET bispecific antibody conjugate
B2: DFO-H4H14639D immunoconjugate (DAR 1.26) (bispecific antibody, V domains shown)
VH 1: EVQLVESGGGLVQPGTSLRLSCAASGFTFDDYAMHWVRQAPGKGLEWVSGITWNSYNIDYADSVKGRFTISRDNAKNSLYLQMNSLRAEDTALYYCAKDDDYSNYVYFDYWGQGTLVTVSS
VH 2: EVQLVESGGGLVQPGGSLRLSCAASGFIVTTNYMTWLRQAPGKGLEWVSLIYSSGHTYYADSVKGRFTISRHNSKNTLYLQMDSLRAEDTAVYYCASAFAADVFDIWGQGTMVTVSS
VL: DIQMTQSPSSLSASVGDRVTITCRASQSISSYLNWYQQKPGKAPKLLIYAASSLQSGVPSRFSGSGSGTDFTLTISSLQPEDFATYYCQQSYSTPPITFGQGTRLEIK
modifications: p-SCN-Bn-DFO on primary amines, sites not stated; average DAR 1.26 per antibody
notes: also called DFO-Ab immunoconjugate; DFO-MET x MET immunoconjugate

Tests used:
[1] = target: T1, human MET on EBC-1, NCI-H441 and NCI-H358 cells (human, UniProt P08581 25-1390); assay: saturation radioligand binding (antibody binding capacity) assay with 89Zr-DFO-H4H14639D on NCI-H441 cells, 4 C, 45 min, gamma counting; x axis is total antibody dosed, not free
T1 construct: whole, on cells; also called Met receptor; c-Met
T1 sequence (P08581 25-1390): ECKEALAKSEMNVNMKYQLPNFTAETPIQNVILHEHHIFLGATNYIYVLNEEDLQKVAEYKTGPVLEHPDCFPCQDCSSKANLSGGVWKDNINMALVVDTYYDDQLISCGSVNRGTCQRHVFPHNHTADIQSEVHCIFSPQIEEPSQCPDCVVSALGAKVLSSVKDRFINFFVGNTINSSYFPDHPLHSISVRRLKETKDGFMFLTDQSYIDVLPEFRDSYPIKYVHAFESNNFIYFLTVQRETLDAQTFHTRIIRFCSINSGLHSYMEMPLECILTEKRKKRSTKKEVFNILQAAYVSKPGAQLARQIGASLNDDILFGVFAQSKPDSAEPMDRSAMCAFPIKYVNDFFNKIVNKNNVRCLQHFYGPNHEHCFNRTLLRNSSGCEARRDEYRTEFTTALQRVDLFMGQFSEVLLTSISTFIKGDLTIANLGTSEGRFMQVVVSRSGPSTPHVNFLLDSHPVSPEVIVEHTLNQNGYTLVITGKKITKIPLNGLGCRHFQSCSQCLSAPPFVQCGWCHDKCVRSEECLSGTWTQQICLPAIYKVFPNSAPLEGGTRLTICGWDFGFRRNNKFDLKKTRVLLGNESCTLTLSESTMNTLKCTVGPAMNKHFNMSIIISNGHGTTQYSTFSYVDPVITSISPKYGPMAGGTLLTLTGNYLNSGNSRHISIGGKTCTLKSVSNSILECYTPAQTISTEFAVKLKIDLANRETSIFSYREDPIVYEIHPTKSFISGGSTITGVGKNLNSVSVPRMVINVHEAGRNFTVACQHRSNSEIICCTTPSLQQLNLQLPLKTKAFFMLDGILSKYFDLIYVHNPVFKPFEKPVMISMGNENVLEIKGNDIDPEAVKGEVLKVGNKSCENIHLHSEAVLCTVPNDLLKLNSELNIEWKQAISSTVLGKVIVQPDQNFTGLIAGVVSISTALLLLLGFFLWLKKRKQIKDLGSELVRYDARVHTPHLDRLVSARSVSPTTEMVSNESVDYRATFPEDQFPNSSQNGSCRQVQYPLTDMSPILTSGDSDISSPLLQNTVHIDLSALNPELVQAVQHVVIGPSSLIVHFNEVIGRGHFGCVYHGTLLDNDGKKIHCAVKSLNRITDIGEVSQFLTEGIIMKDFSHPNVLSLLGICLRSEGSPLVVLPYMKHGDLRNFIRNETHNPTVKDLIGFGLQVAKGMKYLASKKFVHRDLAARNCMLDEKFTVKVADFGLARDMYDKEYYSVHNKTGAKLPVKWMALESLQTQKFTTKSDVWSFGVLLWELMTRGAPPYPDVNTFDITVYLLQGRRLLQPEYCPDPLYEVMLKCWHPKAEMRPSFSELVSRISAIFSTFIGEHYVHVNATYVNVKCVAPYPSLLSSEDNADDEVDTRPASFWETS
Experimental: (§1) This wash process was repeated two more times, before resuspending cells in 200 μL of cold buffer (10% FBS in PBS, v/v). Of the 200 μL, 180 μL from each well was collected and dispensed into flip-cap tubes, representing the cell-bound antibody. […] A calibration curve was generated from the total antibody dosed samples using counts detected vs total antibody dosed per well, T, based on the dilution series starting from the initial antibody concentration (divided by five because of sampling). The calibration curve was used to convert the bound fraction counts (multiplied by […] because of sampling) to mass (or concentration) of bound antibody, B.
(§2) The radioligand internalization was also assayed at the highest dosed concentration at 4° C. for the 45 minutes. […] Activity of cell pellets, stripping supernatants, and wash supernatants were measured using a gamma counter. The fraction internalized, I, was calculated as the ratio of activity of the cell pellet over sum of the total activity of the cell pellet, stripping supernatant and wash supernatants.
(§3) Because there are multiple binding formats for H4H14639D, the data set was fit by the Hill-Langmuir equation (equation 3). The ABC was then calculated using equation 2. Non-specific binding was determined to be a negligible component for all runs was not considered as part of the analysis. […]

[2] = target: T1, human MET on EBC-1, NCI-H441 and …; assay: saturation radioligand binding (antibody binding capacity) assay with 89Zr-DFO-H4H14639D on EBC-1 cells, 4 C, 45 min, gamma counting; x axis is total antibody dosed, not free
Experimental: as §1, §2, §3

[3] = target: MET ('target' in the SPR assay of Example 2; construct not stated) (UniProt P08581 25-932, limits assumed); assay: SPR, Biacore 8k
Sequence of MET ('target' in the SPR assay of Example 2; construct not stated) (P08581 25-932 limits assumed): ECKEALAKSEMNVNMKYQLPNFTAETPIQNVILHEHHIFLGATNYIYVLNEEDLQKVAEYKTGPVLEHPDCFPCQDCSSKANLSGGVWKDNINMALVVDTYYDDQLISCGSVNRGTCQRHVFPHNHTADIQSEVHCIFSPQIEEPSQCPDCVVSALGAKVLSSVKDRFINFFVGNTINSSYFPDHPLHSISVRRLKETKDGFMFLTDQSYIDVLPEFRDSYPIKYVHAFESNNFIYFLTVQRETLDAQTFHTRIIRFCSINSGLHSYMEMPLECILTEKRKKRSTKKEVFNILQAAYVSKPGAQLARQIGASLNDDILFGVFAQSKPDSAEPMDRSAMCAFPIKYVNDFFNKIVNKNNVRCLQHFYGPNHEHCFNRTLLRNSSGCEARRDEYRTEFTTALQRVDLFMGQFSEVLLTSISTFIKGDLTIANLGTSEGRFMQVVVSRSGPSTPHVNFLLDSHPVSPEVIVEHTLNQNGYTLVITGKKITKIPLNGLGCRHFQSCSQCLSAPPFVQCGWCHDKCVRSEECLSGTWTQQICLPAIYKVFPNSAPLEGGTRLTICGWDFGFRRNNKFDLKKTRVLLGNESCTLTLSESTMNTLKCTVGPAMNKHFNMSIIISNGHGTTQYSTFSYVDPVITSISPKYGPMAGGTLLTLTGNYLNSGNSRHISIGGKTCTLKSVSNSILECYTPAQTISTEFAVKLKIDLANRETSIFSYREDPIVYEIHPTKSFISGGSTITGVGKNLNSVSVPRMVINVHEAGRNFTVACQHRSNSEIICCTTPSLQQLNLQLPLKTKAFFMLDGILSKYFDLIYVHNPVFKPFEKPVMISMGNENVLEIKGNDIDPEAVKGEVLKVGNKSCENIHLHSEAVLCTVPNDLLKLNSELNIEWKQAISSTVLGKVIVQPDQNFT

| Binder | EC50 (read off the curve) [1] [nM] | EC50 (read off the curve) [2] [nM] | KD relative to the KD of the unconjugated bispecific antibody [3] [%] |
| --- | --- | --- | --- |
| B1 | ~2 | ~3 | – |
| B2 | – | – | ≤ 10 |

Reference: patent US20210077638A1 (Regeneron, published 2021)
